Values of other authors, collected in US20070014786A1, “Methods for treating taxol-induced gut disorder” (RINAT NEUROSCIENCE CORP., priority 2003, published 2007).

T1: low affinity receptor (LNGFR), p75NTR or p75 (Homo sapiens, UniProt P08138)
T1 sequence (P08138 29-427): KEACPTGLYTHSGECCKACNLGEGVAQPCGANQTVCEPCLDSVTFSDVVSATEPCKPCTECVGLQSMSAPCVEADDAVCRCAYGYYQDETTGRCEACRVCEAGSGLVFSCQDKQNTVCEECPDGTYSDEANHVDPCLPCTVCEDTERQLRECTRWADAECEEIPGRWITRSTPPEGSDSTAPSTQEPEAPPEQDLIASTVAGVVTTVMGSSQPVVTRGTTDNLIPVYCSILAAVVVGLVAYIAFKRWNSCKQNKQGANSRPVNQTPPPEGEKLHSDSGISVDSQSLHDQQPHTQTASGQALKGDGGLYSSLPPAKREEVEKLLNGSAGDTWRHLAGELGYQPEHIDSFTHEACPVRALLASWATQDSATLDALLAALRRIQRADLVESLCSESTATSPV

B1: brain-derived neurotrophic factor (protein, UniProt P23560 19-247, looked up)
Neurotrophic factor BDNF …: APMKEANIRGQGGLAYPGVRTHGTLESVNGPKAGSRGLTSLADTFEHVIEELLDEDQKVRPNEENNKDADLYTSRVMLSSQVPLEPPLLFLLEEYKNYLDAANMSMRVRRHSDPARRGELSVCDSISEWVTAADKKTAVDMSGGTVTVLEKVPVSKGQLKQYFYETKCNPMGYTKEGCRGIDKRHWNSQCRTTQSYVRALTMDSKKRIGWRFIRIDTSCVCTLTIKRGR
notes: neurotrophin family member
B2: neurotrophin-4/5 (protein, UniProt P34130 81-210, looked up)
Neurotrophin-4: GVSETAPASRRGELAVCDAVSGWVTDRRTAVDLRGREVEVLGEVPAAGGSPLRQYFFETRCKADNAEEGGPGAGGGGCRGVDRRHWVSECKAKQSYVRALTADAQGRVGWRWIRIDTACVCTLLSRTGRA
notes: neurotrophin family member

Target: T1, low affinity receptor (LNGFR), p75NTR or p75
Conditions: according to current knowledge (background)

Molecule | Kd
B1 | 2 nM
B2 | 2 nM
